Laboratory results published in the supplement of paper PMC10065799, “High-throughput profiling of sequence recognition by tyrosine kinases and SH2 domains using bacterial peptide display” (eLife, 2023).

Experiments:
[1] = molecular target: Hck (UniProt P08631); experiment: phosphorylation enrichment, bacterial display (enrichment ratio); higher = better substrate or ligand; peptides without Tyr show the background
[2] = molecular target: EPHB1 (UniProt P54762); experiment: as above
[3] = molecular target: EPHB2 (UniProt P29323); experiment: as above
[4] = molecular target: FGFR3 (UniProt P22607); experiment: as above
[5] = molecular target: Jak2 (UniProt O60674); experiment: as above
[6] = system: Fer (mouse); experiment: as above
[7] = molecular target: Fyn (UniProt P06241); experiment: as above
[8] = molecular target: MERTK (UniProt Q12866); experiment: as above
[9] = system: c-Abl (mouse); experiment: as above
[10] = system: c-Src; experiment: as above
[11] = molecular target: Fes (UniProt P07332); experiment: as above
[12] = molecular target: FGFR1 (UniProt P11362); experiment: as above
[13] = system: AncSZ; experiment: as above
[14] = molecular target: c-Src SH2; experiment: SH2 binding enrichment of the phosphorylated peptide, bacterial display (enrichment ratio); higher = better substrate or ligand; peptides without Tyr show the background
[15] = molecular target: SHP2-C SH2; experiment: as above
[16] = molecular target: Grb2 SH2 (UniProt P62993); experiment: as above
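For SH2 binding enrichment of the phosphorylated peptide, bacterial display in this document: peptide library displayed on the E. coli surface as eCPX fusions, selected cells deep-sequenced, score is each peptide's frequency after selection divided by its frequency in the input.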
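For phosphorylation enrichment, bacterial display in this document: 11-residue human phosphosite peptides and single-mutation variants displayed on the E. coli surface, counted by deep sequencing, each peptide's frequency after selection divided by its frequency in the unselected input library; frequency after pTyr selection over input frequency; kinase dosed for 20-30% of maximal phosphorylation in three min.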

Chain of Fyn (P06241 whole entry, looked up): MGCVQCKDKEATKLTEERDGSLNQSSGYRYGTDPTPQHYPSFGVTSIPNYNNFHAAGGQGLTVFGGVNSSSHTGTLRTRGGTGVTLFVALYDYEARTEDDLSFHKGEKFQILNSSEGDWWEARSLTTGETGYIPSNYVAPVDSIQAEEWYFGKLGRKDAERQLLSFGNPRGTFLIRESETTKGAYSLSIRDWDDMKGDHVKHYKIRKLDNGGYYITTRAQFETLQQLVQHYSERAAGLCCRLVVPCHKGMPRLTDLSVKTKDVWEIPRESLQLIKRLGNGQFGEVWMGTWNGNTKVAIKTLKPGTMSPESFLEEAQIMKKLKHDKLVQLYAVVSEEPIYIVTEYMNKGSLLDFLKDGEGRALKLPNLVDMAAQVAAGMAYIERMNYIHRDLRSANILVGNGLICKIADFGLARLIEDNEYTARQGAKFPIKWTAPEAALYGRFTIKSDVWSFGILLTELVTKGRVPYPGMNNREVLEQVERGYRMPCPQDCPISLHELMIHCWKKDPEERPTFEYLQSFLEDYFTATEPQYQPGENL
Chain of EPHB2 (P29323 whole entry, looked up): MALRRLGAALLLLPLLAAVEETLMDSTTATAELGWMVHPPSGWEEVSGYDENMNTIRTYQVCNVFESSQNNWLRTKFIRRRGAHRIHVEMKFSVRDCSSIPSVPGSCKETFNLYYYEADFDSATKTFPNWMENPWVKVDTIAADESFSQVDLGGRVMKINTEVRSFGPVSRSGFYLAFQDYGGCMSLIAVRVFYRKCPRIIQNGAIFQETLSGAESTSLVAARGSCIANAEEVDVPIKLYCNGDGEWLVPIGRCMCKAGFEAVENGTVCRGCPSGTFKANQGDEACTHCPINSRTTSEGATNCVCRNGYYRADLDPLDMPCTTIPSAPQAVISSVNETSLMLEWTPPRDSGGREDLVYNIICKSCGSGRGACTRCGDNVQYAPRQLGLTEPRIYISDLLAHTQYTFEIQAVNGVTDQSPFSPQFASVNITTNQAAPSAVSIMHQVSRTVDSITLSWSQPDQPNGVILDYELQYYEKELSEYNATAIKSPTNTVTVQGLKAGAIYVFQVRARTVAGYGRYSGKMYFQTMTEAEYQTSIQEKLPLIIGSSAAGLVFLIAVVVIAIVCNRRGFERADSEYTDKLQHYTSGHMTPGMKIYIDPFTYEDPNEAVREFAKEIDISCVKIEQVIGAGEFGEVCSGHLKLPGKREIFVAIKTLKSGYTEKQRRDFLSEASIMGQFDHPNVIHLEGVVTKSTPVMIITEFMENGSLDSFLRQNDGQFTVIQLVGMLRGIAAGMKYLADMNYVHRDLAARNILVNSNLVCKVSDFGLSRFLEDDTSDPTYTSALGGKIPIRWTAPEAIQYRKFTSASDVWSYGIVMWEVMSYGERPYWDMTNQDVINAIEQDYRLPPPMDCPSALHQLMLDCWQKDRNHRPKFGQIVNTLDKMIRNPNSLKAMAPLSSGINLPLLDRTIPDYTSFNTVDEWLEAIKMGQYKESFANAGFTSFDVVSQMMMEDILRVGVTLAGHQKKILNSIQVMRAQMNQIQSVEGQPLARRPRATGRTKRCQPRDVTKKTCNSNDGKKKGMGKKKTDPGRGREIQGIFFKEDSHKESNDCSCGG
Chain of MERTK (Q12866 whole entry, looked up): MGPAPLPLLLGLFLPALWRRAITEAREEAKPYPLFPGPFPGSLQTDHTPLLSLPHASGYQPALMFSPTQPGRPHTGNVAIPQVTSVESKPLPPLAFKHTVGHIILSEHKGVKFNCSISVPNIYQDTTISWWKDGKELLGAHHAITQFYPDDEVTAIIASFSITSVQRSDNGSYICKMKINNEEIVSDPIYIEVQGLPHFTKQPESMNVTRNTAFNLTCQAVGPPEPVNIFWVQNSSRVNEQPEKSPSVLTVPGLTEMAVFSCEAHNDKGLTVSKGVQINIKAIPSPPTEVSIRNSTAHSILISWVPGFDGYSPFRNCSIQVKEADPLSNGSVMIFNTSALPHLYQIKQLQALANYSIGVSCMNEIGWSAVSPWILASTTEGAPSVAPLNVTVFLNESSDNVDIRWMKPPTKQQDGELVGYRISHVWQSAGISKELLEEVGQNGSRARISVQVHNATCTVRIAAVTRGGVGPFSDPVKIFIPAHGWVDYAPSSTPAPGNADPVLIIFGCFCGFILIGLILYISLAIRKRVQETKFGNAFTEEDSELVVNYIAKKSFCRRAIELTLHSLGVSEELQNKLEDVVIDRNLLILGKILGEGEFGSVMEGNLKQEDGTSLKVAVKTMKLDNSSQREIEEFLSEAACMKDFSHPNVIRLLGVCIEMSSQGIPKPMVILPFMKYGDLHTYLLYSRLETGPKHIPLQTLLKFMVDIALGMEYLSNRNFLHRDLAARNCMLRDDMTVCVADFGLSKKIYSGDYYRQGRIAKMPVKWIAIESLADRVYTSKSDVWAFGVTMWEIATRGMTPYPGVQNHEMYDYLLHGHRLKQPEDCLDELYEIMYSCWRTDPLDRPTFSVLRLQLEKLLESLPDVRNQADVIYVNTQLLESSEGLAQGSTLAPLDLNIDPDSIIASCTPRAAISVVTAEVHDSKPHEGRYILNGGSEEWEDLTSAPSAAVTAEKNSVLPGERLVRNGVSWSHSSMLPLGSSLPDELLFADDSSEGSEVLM
Chain of EPHB1 (P54762 whole entry, looked up): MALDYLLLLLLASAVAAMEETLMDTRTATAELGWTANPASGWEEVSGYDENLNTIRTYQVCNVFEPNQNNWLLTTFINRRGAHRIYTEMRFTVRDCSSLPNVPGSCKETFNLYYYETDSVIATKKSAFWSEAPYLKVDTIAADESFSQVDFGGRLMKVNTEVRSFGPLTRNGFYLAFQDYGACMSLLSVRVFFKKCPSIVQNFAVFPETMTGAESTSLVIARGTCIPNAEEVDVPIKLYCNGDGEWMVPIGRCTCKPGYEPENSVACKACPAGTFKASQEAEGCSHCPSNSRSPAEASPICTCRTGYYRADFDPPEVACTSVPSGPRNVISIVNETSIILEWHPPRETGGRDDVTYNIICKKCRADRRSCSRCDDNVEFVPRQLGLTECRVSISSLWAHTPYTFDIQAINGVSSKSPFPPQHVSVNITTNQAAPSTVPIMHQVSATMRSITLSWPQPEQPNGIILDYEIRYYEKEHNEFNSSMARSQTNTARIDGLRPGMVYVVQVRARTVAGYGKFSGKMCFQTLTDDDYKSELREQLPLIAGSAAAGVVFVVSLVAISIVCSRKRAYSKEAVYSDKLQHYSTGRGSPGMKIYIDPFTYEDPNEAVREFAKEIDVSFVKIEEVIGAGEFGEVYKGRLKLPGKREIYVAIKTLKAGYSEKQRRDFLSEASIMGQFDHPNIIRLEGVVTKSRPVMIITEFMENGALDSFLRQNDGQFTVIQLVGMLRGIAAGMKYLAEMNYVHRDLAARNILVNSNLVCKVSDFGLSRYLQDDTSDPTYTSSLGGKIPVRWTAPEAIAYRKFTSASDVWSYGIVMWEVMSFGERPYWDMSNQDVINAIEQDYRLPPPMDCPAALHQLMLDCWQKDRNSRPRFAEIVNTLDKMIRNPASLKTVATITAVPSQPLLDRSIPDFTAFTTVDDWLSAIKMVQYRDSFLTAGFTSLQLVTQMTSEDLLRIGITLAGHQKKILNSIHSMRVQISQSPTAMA
Chain of Fes (P07332 whole entry, looked up): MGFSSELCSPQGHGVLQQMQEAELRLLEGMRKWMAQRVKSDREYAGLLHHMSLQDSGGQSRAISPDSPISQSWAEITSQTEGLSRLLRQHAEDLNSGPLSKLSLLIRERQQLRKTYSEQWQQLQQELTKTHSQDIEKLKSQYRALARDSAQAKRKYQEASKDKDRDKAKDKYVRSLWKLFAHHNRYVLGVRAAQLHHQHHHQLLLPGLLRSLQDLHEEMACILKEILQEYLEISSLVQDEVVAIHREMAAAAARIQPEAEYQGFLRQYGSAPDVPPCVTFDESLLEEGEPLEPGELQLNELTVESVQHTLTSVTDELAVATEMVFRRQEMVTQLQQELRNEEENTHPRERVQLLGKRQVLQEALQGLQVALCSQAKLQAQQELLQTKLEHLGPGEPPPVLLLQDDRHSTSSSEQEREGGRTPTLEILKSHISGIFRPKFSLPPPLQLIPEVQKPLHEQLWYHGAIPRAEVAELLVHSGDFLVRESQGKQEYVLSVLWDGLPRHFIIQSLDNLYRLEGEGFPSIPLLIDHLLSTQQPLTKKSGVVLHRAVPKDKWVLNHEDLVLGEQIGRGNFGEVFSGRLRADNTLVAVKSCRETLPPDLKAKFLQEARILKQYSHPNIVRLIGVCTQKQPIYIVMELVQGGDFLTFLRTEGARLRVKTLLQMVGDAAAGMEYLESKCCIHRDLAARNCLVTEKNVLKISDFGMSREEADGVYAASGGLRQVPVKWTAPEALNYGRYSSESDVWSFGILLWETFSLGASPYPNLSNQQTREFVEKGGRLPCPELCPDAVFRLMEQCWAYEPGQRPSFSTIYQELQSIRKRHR
Chain of Grb2 SH2 (P62993 whole entry, looked up, the tested form may be a part): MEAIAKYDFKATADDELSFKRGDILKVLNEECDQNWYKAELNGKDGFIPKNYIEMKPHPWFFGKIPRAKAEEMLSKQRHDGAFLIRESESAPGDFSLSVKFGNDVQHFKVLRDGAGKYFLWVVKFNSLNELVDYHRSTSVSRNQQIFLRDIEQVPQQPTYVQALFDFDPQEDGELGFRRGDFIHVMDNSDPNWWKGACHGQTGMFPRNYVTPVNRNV

| Sequence | phosphorylation enrichment [1] | phosphorylation enrichment [2] | phosphorylation enrichment [3] | phosphorylation enrichment [4] | phosphorylation enrichment [5] | phosphorylation enrichment [6] | phosphorylation enrichment [7] | phosphorylation enrichment [8] | phosphorylation enrichment [9] | phosphorylation enrichment [10] | phosphorylation enrichment [11] | phosphorylation enrichment [12] | phosphorylation enrichment [13] | SH2 binding enrichment [14] | SH2 binding enrichment [15] | SH2 binding enrichment [16] |
| --- | --- | --- | --- | --- | --- | --- | --- | --- | --- | --- | --- | --- | --- | --- | --- | --- |
| SFVMVYEGNAR [INSR_Y1038_G1035V] | 0.747 | 0.621 | 0.683 | 0.85 | 1.22 | 0.551 | 0.634 | 0.393 | 0.618 | 0.77 | 1.25 | 0.562 | 1.28 | 0.531 | 0.942 | 0.973 |
| VSSPKYGSNDE [TMCC2_Y473_D476N] | 0.426 | 0.452 | 0.536 | 0.619 | 0.857 | 0.509 | 0.445 | 0.454 | 0.801 | 0.514 | 0.912 | 0.406 | 0.867 | 0.519 | 0.657 | 0.722 |
| ASNFNYFYHRE [KCNA1_Y413_V408A] | 0.428 | 0.582 | 0.65 | 0.956 | 0.732 | 0.455 | 0.504 | 0.398 | 0.476 | 0.497 | 0.964 | 1.1 | 0.95 | 0.697 | 1.02 | 0.695 |
| FRPPYYHRDCM [HGD_Y334_N337D] | 0.415 | 0.536 | 0.611 | 0.735 | 0.723 | 0.499 | 0.417 | 0.444 | 0.572 | 0.455 | 0.867 | 0.56 | 0.805 | 1.09 | 0.913 | 1.08 |
| HKDNNYISMWF [PAPOLG_Y432_V433I] | 0.866 | 2.88 | 2.15 | 2.46 | 1.46 | 1.14 | 0.934 | 1.33 | 0.975 | 0.663 | 2.53 | 3.2 | 1.93 | 0.346 | 0.51 | 0.726 |
| FVTSMYNEILI [TRPV1_Y310_M315I] | 1.14 | 0.684 | 0.714 | 0.903 | 1.01 | 6.66 | 0.682 | 1.17 | 0.686 | 0.621 | 1.32 | 0.733 | 1.16 | 4.5 | 1.09 | 0.929 |
| GRVYVYRLSEQ [ITGAE_Y551] | 0.462 | 0.539 | 0.471 | 0.661 | 0.83 | 0.508 | 0.568 | 0.4 | 0.683 | 0.725 | 1.04 | 0.411 | 0.858 | 1.16 | 11.3 | 1.41 |
| PIPAAYNKFDQ [CDC73_Y290_R292K_YF] | 0.661 | 0.687 | 1.39 | 0.925 | 0.653 | 0.798 | 0.745 | 0.415 | 0.684 | 0.611 | 0.864 | 0.57 | 1.54 | 0.509 | 0.86 | 0.946 |
| IMVFVYCRVFQ [ADRB2_Y219_S220C] | 0.473 | 0.424 | 0.488 | 0.632 | 0.699 | 0.435 | 0.51 | 0.449 | 0.63 | 0.395 | 0.836 | 0.841 | 0.729 | 0.768 | 1.1 | 1.41 |
| KMKGDYYCYLA [YWHAG_Y130_R132C] | 1.58 | 4.58 | 4.35 | 9.02 | 3.93 | 0.895 | 1.38 | 6.74 | 1.57 | 1.78 | 1.24 | 11 | 2.32 | 0.837 | 0.836 | 0.743 |
| IIRYNYLLDVL [FGFR4_Y237_S232I] | 0.557 | 0.522 | 0.651 | 0.723 | 1.03 | 0.507 | 0.476 | 0.52 | 0.976 | 0.49 | 2.41 | 0.599 | 0.943 | 2.69 | 1.66 | 1.34 |
| RVQKRYIFDNV [RCN1_Y115] | 0.328 | 0.291 | 0.472 | 0.619 | 0.455 | 0.381 | 0.319 | 0.422 | 0.252 | 0.394 | 0.442 | 0.484 | 0.531 | 0.273 | 0.503 | 0.468 |
| YEKFLYFLPAS [DYNC2H1_Y346_H341Y] | 0.827 | 0.764 | 0.644 | 0.91 | 2.7 | 0.581 | 0.868 | 2.16 | 0.89 | 0.938 | 1.31 | 0.57 | 1.5 | 2.21 | 1.19 | 1.05 |
| RVEDAYILTCN [CCT6A_Y229] | 0.692 | 0.515 | 0.487 | 0.689 | 0.772 | 4.93 | 0.839 | 0.498 | 0.565 | 1 | 0.928 | 0.721 | 1.07 | 0.671 | 0.54 | 0.663 |
| CLMILYRLKER [PTPRR_Y249] | 0.494 | 0.444 | 0.603 | 0.809 | 0.997 | 0.501 | 0.5 | 0.364 | 0.576 | 0.388 | 1.23 | 0.509 | 1.26 | 0.901 | 1.22 | 1.25 |
